Data as given in patent publication US11260115B1, “Peptides and combination of peptides for use in immunotherapy against CLL and other cancers” (immatics biotechnologies GmbH, priority 2015, dated 2022).

Target: HLA-A*02:01 (Homo sapiens, UniProt P04439, D140Y/D185E/D98H/E176V/E277Q/G131W/G231S/I119V/I121R/I166T/I218V/L300P/L318F/N151K/N90K/P208A/P217A/Q86G/Q94H/R138H/R169H/T345S)
Assay: MHC binding assay (UV-ligand exchange, β2m ELISA, peptide exchange yield)
Settings: binding to HLA-A*02:01
Method in brief: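 Peptide-HLA-A*02:01 complexes formed by UV-mediated exchange of a photocleavable ligand; exchange yield measured by streptavidin-capture ELISA detecting β2m with HRP anti-β2m, TMB read at 450 nm. Refolded monomer standards 15-500 ng/ml; samples diluted 100-fold.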

Row | Substance | Peptide Exchange (MHC class I binding score, peptide exchange yield)
1 | 193 (YLDLSNNRL; listed as Homo sapiens) [compound 193] | “+++” (>50 = +++)
2 | 194 (YLDNVLAEL; listed as Homo sapiens) [compound 194] | “++++” (>75% = ++++)
3 | 195 (YLGGFALSV; listed as Homo sapiens) [compound 195] | “++++” (>75% = ++++)
4 | 196 (YLLLQTYVL; listed as Homo sapiens) [compound 196] | “+” (>10% = +)
5 | 198 (YLTFLPAEV; listed as Homo sapiens) [compound 198] | “+++” (>50 = +++)
6 | 199 (YLVELSSLL; listed as Homo sapiens) [compound 199] | “++++” (>75% = ++++)
7 | 202 (YVDDVFLRV; listed as Homo sapiens) [compound 202] | “++++” (>75% = ++++)
8 | 203 (ALLSSQLAL; listed as Homo sapiens) [compound 203] | “+++” (>50 = +++)
9 | 204 (GLLQINDKIAL; listed as Homo sapiens) [compound 204] | “+++” (>50 = +++)
10 | 205 (GLSQANFTL; listed as Homo sapiens) [compound 205] | “+++” (>50 = +++)
11 | 206 (HMQDVRVLL; listed as Homo sapiens) [compound 206] | “+++” (>50 = +++)
12 | 207 (IIADLDTTIMFA; listed as Homo sapiens) [compound 207] | “+++” (>50 = +++)
13 | 208 (ILLKTEGINL; listed as Homo sapiens) [compound 208] | “+++” (>50 = +++)
14 | 209 (ILQAELPSL; listed as Homo sapiens) [compound 209] | “+++” (>50 = +++)
15 | 210 (KLLVQDFFL; listed as Homo sapiens) [compound 210] | “+++” (>50 = +++)
16 | 211 (LIDVKPLGV; listed as Homo sapiens) [compound 211] | “+++” (>50 = +++)
17 | 214 (RLQELTEKL; listed as Homo sapiens) [compound 214] | “+++” (>50 = +++)
18 | 215 (VMQDIVYKL; listed as Homo sapiens) [compound 215] | “+++” (>50 = +++)
19 | 216 (WLAGDVPAA; listed as Homo sapiens) [compound 216] | “+++” (>50 = +++)
20 | 217 (ALDEPPYLTV; listed as Homo sapiens) [compound 217] | “+++” (>50 = +++)
21 | 218 (ALGEEWKGYVV; listed as Homo sapiens) [compound 218] | “++” (>20% = ++)
22 | 219 (ALLNLLESA; listed as Homo sapiens) [compound 219] | “+++” (>50 = +++)
23 | 220 (ALPEILFAKV; listed as Homo sapiens) [compound 220] | “+++” (>50 = +++)
24 | 221 (ALVSTIIMV; listed as Homo sapiens) [compound 221] | “+” (>10% = +)
25 | 222 (ALWELSLKI; listed as Homo sapiens) [compound 222] | “+++” (>50 = +++)
26 | 223 (ALWVSQPPEI; listed as Homo sapiens) [compound 223] | “+++” (>50 = +++)
27 | 224 (AMEALVVEV; listed as Homo sapiens) [compound 224] | “+++” (>50 = +++)
28 | 225 (ILQERELLPV; listed as Homo sapiens) [compound 225] | “+++” (>50 = +++)
29 | 226 (AMNISVPQV; listed as Homo sapiens) [compound 226] | “+++” (>50 = +++)

Other lines, results leading:

Row | Peptide Exchange (MHC class I binding score, peptide exchange yield) | Substance
30 | “+++” (>50 = +++) | 227 (FLAEASVMTQL; listed as Homo sapiens) [compound 227]
31 | “+++” (>50 = +++) | 228 (FLGGLSPGV; listed as Homo sapiens) [compound 228]
32 | “++++” (>75% = ++++) | 229 (FLLNLQNCHL; listed as Homo sapiens) [compound 229]
33 | “+++” (>50 = +++) | 230 (FLQDSKVIFV; listed as Homo sapiens) [compound 230]
34 | “+++” (>50 = +++) | 231 (FLYIRQLAI; listed as Homo sapiens) [compound 231]
35 | “++++” (>75% = ++++) | 232 (FMHQIIDQV; listed as Homo sapiens) [compound 232]
36 | “++” (>20% = ++) | 233 (GIIDINVRL; listed as Homo sapiens) [compound 233]
37 | “++” (>20% = ++) | 234 (GLDDAEYAL; listed as Homo sapiens) [compound 234]
38 | “+++” (>50 = +++) | 235 (GLDDLLLFL; listed as Homo sapiens) [compound 235]
39 | “+++” (>50 = +++) | 236 (GLLESGRHYL; listed as Homo sapiens) [compound 236]
40 | “++++” (>75% = ++++) | 237 (GLQENLDVVV; listed as Homo sapiens) [compound 237]
41 | “+++” (>50 = +++) | 238 (GLVETELQL; listed as Homo sapiens) [compound 238]
42 | “+++” (>50 = +++) | 239 (ILAGEMLSV; listed as Homo sapiens) [compound 239]
43 | “+++” (>50 = +++) | 241 (ILGDILLKV; listed as Homo sapiens) [compound 241]
44 | “+++” (>50 = +++) | 242 (ILLGIQELL; listed as Homo sapiens) [compound 242]
45 | “+++” (>50 = +++) | 243 (ILPTLEKELFL; listed as Homo sapiens) [compound 243]
46 | “+++” (>50 = +++) | 244 (ILQALAVHL; listed as Homo sapiens) [compound 244]
47 | “++++” (>75% = ++++) | 245 (KIMDYSLLLGV; listed as Homo sapiens) [compound 245]
48 | “++” (>20% = ++) | 246 (KLDETGVAL; listed as Homo sapiens) [compound 246]
49 | “++” (>20% = ++) | 247 (KLKDRLPSI; listed as Homo sapiens) [compound 247]
50 | “++” (>20% = ++) | 248 (KTVEPPISQV; listed as Homo sapiens) [compound 248]
